This assay deals with humanized 3S193 VL-0-VH scFv multimer (humanized (mouse CDRs on human frameworks)). As to the kind of experiment: SEC. For orientation: Size exclusion chromatography separates by hydrodynamic size, large species first.

Stoichiometry N data for one molecule are collected here from article PMC2663784.

“And” between values parts separate entries of the source, which are not always exact repeats. Equal entries are not always repeated.

As a reminder, the stoichiometry N is the number of molecules, sites or subunits per partner or assembly.

B1: humanized 3S193 VL-0-VH scFv multimer (scFv, V domains shown)
VH: EVQLVESGGGVVQPGRSLRLSCSTSGFTFSDYYMYWVRQAPGKGLEWVAYMSNVGAITDYPDTVKGRFTISRDNSKNTLFLQMDSLRPEDTGVYFCARGTRDGSWFAYWGQGTPVTVSS
VL: DIQMTQSPSSLSASVGDRVTITCRSSQRIVHSNGNTYLEWYQQTPGKAPKLLIYKVSNRFSGVPSRFSGSGSGTDFTFTISSLQPEDIATYYCFQGSHVPFTFGQGTKLQIT
B1: the stoichiometry N was 3 and 4.
